± gives the standard deviation of the averaged measurements.
Tested on: Saccharomyces cerevisiae
Assay: protein stability index of tFT-peptide fusion (C-terminal peptide) (PSI (0-1 scale)); higher = more stable (slower turnover)
Conditions: temperature: 30 C
Protocol: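 MPS profiling in S. cerevisiae of the yeast C-terminome library: the last 12 aa of each annotated ORF are fused to the C-terminus of a sfGFP-mCherry timer, after a GGGS linker. Cells are FACS-sorted into 8 mCherry/sfGFP bins and deep-sequenced. PSI runs from 0 (unstable) to 1 (stable); wild type and das1Δ backgrounds, two technical replicates each.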

[1] = genetic background: das1 deletion

Sequence | protein stability index [1] | protein stability index (genetic background: wild type)
GVEKYWGILSSD [SCW10 C-terminal 12 aa] | 0.7123 ± 0.0033 | 0.716 ± 0.028
QTILKNKKKISQ [GYP6 C-terminal 12 aa] | 0.701 ± 0.049 | 0.6842 ± 0.0023
VRKLSFHVYEDE [ACM1 C-terminal 12 aa] | 0.6908 ± 0.001 | 0.658 ± 0.0079
VEAVKRVLTKKF [IMG2 C-terminal 12 aa] | 0.6883 ± 0.0047 | 0.694 ± 0.012
FGWFDMNMEQGF [SEF1 C-terminal 12 aa] | 0.7562 ± 0.0074 | 0.757 ± 0.023
SFSYLWRNFGFI [PDR18 C-terminal 12 aa] | 0.7475 ± 0.0067 | 0.716 ± 0.027
FVDGIANSKKST [SRB7 C-terminal 12 aa] | 0.699 ± 0.01 | 0.682 ± 0.023
TAAQILKKQNRL [YDR541C C-terminal 12 aa] | 0.6454 ± 0.0021 | 0.704 ± 0.063
LNEYSKDPPGNN [RAD18 C-terminal 12 aa] | 0.704 ± 0.018 | 0.707 ± 0.021
WDGNLFVWNGLG [PEX7 C-terminal 12 aa] | 0.7335 ± 0.0029 | 0.4319 ± 0.0013
NEALVKTTKQKL [LPX1 C-terminal 12 aa] | 0.703 ± 0.013 | 0.704 ± 0.018
RGIAAIRESLSN [YIR042C C-terminal 12 aa] | 0.6681 ± 0.006 | 0.697 ± 0.02
EVALAPSSNMIF [YKL083W C-terminal 12 aa] | 0.716 ± 0.02 | 0.713 ± 0.0034
KEQEESEKDKEN [BFR1 C-terminal 12 aa] | 0.732 ± 0.015 | 0.69 ± 0.05
LYGQRFLATGFQ [AIM19 C-terminal 12 aa] | 0.714 ± 0.0097 | 0.705 ± 0.024
KRGEIYETGKFF [OLE1 C-terminal 12 aa] | 0.707 ± 0.011 | 0.723 ± 0.011
TSSQYEGVALGM [EAF3 C-terminal 12 aa] | 0.695 ± 0.013 | 0.669 ± 0.0083
FRSSAGLRSSKV [MIC10 C-terminal 12 aa] | 0.742 ± 0.016 | 0.706 ± 0.011
DTSSTVEKKQKT [CCL1 C-terminal 12 aa] | 0.686 ± 0.032 | 0.692 ± 0.038
RAVSGVELRIYV [POP7 C-terminal 12 aa] | 0.644 ± 0.012 | 0.641 ± 0.017
SKGSPINTQYVF [AGA2 C-terminal 12 aa] | 0.731 ± 0.02 | 0.732 ± 0.056

Sequence | protein stability index [1] | protein stability index (genetic background: wild type)
AYIDTSIPNLLL [REG2 C-terminal 12 aa] | 0.707 ± 0.022 | 0.7067 ± 0.0067
RMHRRLPFPTLN [YJR142W C-terminal 12 aa] | 0.699 ± 0.025 | 0.548 ± 0.013
VQSTDIAAMQKL [EFB1 C-terminal 12 aa] | 0.721 ± 0.014 | 0.683 ± 0.035
LNTSNECCTSDD [BIL2 C-terminal 12 aa] | 0.692 ± 0.023 | 0.669 ± 0.016
RDMVELMKFYEL [HOS1 C-terminal 12 aa] | 0.715 ± 0.0096 | 0.6886 ± 0.0047
GPCCMYIGCGCG [YBR056C-B C-terminal 12 aa] | 0.6658 ± 0.0036 | 0.686 ± 0.032
MYSSKDNPASPK [TAF1 C-terminal 12 aa] | 0.693 ± 0.021 | 0.674 ± 0.017
RDVLDDGSNIMS [IAH1 C-terminal 12 aa] | 0.6824 ± 0.0049 | 0.7 ± 0.0082
LNNTAASTGPGR [YKE2 C-terminal 12 aa] | 0.684 ± 0.011 | 0.655 ± 0.0052
ILEAWEKVDDSL [SNX4 C-terminal 12 aa] | 0.734 ± 0.013 | 0.734 ± 0.016
GIYSAVIDQTGF [RRP9 C-terminal 12 aa] | 0.705 ± 0.011 | 0.6868 ± 0.003
QSMLDGNSPESV [DCR2 C-terminal 12 aa] | 0.6985 ± 0.0053 | 0.693 ± 0.021
RIEQNRPDDGVY [FMP16 C-terminal 12 aa] | 0.682 ± 0.068 | 0.65 ± 0.017
VDVLKLNDPTRH [BCY1 C-terminal 12 aa] | 0.716 ± 0.031 | 0.706 ± 0.042
HFLQKFFKLFDN [YMR052C-A C-terminal 12 aa] | 0.734 ± 0.0093 | 0.687 ± 0.015
MMTRENMDMGER [RRP3 C-terminal 12 aa] | 0.669 ± 0.044 | 0.649 ± 0.027
PGDTLIEVIDLT [WSS1 C-terminal 12 aa] | 0.692 ± 0.025 | 0.7105 ± 0.00019
DKYPFLLYEVVR [YHR022C-A C-terminal 12 aa] | 0.5289 ± 0.0027 | 0.544 ± 0.027
DLLNSVVVQRWA [SHP1 C-terminal 12 aa] | 0.697 ± 0.012 | 0.702 ± 0.034
QQQQQKKESSTA [GIM5 C-terminal 12 aa] | 0.727 ± 0.0087 | 0.7 ± 0.037
MTKISILKPFLH [CDC6 C-terminal 12 aa] | 0.711 ± 0.0076 | 0.6156 ± 0.0052

Sequence | protein stability index [1] | protein stability index (genetic background: wild type)
QRSKSKRQKRRK [YNG1 C-terminal 12 aa] | 0.705 ± 0.017 | 0.652 ± 0.036
KLLQIHKSKQQD [TAH11 C-terminal 12 aa] | 0.69 ± 0.013 | 0.706 ± 0.012
ALFKAAGGKIKK [YLF2 C-terminal 12 aa] | 0.6703 ± 0.0023 | 0.66 ± 0.011
IIWEKRNPEQKI [ERG11 C-terminal 12 aa] | 0.702 ± 0.023 | 0.7138 ± 0.0069
LLLSIFSILIVL [YPS7 C-terminal 12 aa] | 0.321 ± 0.0053 | 0.2802 ± 0.0025
EVTAKTSLVSPK [ROX1 C-terminal 12 aa] | 0.7021 ± 0.004 | 0.676 ± 0.018
ELTKALDLLNSI [VTA1 C-terminal 12 aa] | 0.691 ± 0.015 | 0.694 ± 0.047
LSEASKLASKPL [COX15 C-terminal 12 aa] | 0.701 ± 0.0094 | 0.704 ± 0.039
DSLENKIDSMTK [INH1 C-terminal 12 aa] | 0.715 ± 0.018 | 0.714 ± 0.055
GDKLISPLKKAF [TKL1 C-terminal 12 aa] | 0.675 ± 0.013 | 0.711 ± 0.044
ISIVACALWLVF [DCW1 C-terminal 12 aa] | 0.288 ± 0.003 | 0.291 ± 0.0036
VWADILNKLGKD [ADK1 C-terminal 12 aa] | 0.704 ± 0.013 | 0.719 ± 0.025
VLSFNPKVWLLV [YAR068W C-terminal 12 aa] | 0.562 ± 0.0081 | 0.0978 ± 0.0096
LKKEKLQALPTP [PDP3 C-terminal 12 aa] | 0.691 ± 0.00082 | 0.675 ± 0.011
RTQGEGQGSMFR [TAF11 C-terminal 12 aa] | 0.7233 ± 0.0027 | 0.6719 ± 0.0047
RTRPPTAVAHIA [DUG3 C-terminal 12 aa] | 0.6938 ± 0.0057 | 0.337 ± 0.0086
VGDIVWKIRNIN [TTI1 C-terminal 12 aa] | 0.689 ± 0.026 | 0.1985 ± 0.0019
SVTFFIQDILCL [YPL073C C-terminal 12 aa] | 0.389 ± 0.019 | 0.407 ± 0.015
KKGETFGYDKWW [OPT1 C-terminal 12 aa] | 0.725 ± 0.021 | 0.683 ± 0.032
CPHHNPDNQQFF [BIK1 C-terminal 12 aa] | 0.702 ± 0.025 | 0.702 ± 0.078
ETPSQTSQEATQ [ERG6 C-terminal 12 aa] | 0.731 ± 0.0089 | 0.722 ± 0.015

Sequence | protein stability index [1] | protein stability index (genetic background: wild type)
GVALAGALAFLI [HOR7 C-terminal 12 aa] | 0.68751 ± 0.00021 | 0.66173 ± 0.00053
NAIEEELAKMKL [THR4 C-terminal 12 aa] | 0.6922 ± 0.0025 | 0.692 ± 0.035
YCIYQILILVKH [YCL065W C-terminal 12 aa] | 0.149 ± 0.019 | 0.171 ± 0.013
RVVDLVEHVAKA [TDH2 C-terminal 12 aa] | 0.705 ± 0.026 | 0.6748 ± 0.0044
FATFELAMRLLG [YMC1 C-terminal 12 aa] | 0.674 ± 0.015 | 0.194 ± 0.013
HYPSSDIRGDIL [YOR161C-C C-terminal 12 aa] | 0.6911 ± 0.0014 | 0.69973 ± 0.00023
NSDTIARIATVM [DAS1 C-terminal 12 aa] | 0.685 ± 0.011 | 0.595 ± 0.0036
ATRVSSRLRNKK [EAF7 C-terminal 12 aa] | 0.7311 ± 0.0026 | 0.701 ± 0.025
VGADSYAEEEEF [TUB1 C-terminal 12 aa] | 0.687 ± 0.032 | 0.676 ± 0.032
LMLGVAYYLLNE [CYB5 C-terminal 12 aa] | 0.624 ± 0.044 | 0.649 ± 0.048
KFDEKTATLVDE [YDL144C C-terminal 12 aa] | 0.692 ± 0.027 | 0.675 ± 0.022
LNAFQHPIVEFQ [YEL028W C-terminal 12 aa] | 0.755 ± 0.013 | 0.69 ± 0.022
HGRESANGISKQ [YLR374C C-terminal 12 aa] | 0.679 ± 0.015 | 0.65531 ± 0.00026
TALNSGRSRDVK [YJL027C C-terminal 12 aa] | 0.6821 ± 0.0027 | 0.678 ± 0.019
TLRGLSNAFPTD [MME1 C-terminal 12 aa] | 0.7057 ± 0.0043 | 0.703 ± 0.013
SDELSRNFDSQG [VPS3 C-terminal 12 aa] | 0.705 ± 0.017 | 0.726 ± 0.015
FCESDSIKMYPT [FYV10 C-terminal 12 aa] | 0.706 ± 0.0071 | 0.698 ± 0.026
PEMDKEKKKFYL [RPF1 C-terminal 12 aa] | 0.724 ± 0.04 | 0.708 ± 0.06
TPKYVESDEDDQ [TOF2 C-terminal 12 aa] | 0.654 ± 0.041 | 0.7196 ± 0.0037
